Laboratory results taken from patent US20200255508A1 (AbbVie / Abbott, published 2020).

How the values were obtained:
[1] = target: T1, mouse DLL4 extracellular domain (mouse, UniProt Q9JI71 27-532); assay: Biacore SPR
T1 construct: extracellular domain; also called muDLL4 ECD; Mouse DLL4 ECD
Method: The BIACORE® surface plasmon resonance assay (Biacore, Inc., Piscataway, N.J., US) determines the affinity of antibodies with kinetic measurements of on-rate and off-rate constants. Binding of DLL4 antibodies to a purified recombinant DLL4 extracellular domain is determined by surface plasmon resonance-based measurements with a Biacore® instrument (either a Biacore 2000, Biacore 3000, or Biacore T100, GE Healthcare, Piscataway, N.J. US) using running buffer HBS-EPB (10 mM HEPES [pH 7.4], 150 mM NaCl, 3 mM EDTA, 0.1 mg/ml BSA and 0.005% surfactant P20) at 25° C. For example, approximately 9000 RU of goat anti-human Fc specific polyclonal antibody (Thermo Fisher Scientific Inc., Rockford, Ill., US) diluted in 10 mM sodium acetate (pH 4.5) is directly immobilized across a CM5 research grade biosensor chip using a standard amine coupling kit according to manufacturer's instructions and procedures at 25 μg/ml. Unreacted moieties on the biosensor surface are blocked with ethanolamine. For kinetic analysis, rate equations derived from the 1:1 Langmuir binding model are fitted simultaneously to multiple antigen injections (using global fit analysis) with the use of Scrubber 2 (BioLogic Software). […] The equilibrium dissociation constant KD (M) of the reaction between antibodies and the target antigen is then calculated from the kinetic rate constants by the following formula: KD=Koff/Kₒₙ. Binding is recorded as a function of time and kinetic rate constants are calculated. In this assay, on-rates as fast as 10⁶ M⁻¹s⁻¹ and off-rates as slow as 10⁻⁶ s⁻¹ can be measured.

[2] = target: T2, human DLL4-his (human, UniProt Q9NR61 27-529); assay: ELISA on DLL4-his
T2 construct: extracellular domain
Method: After the final wash, plates were incubated with 100 μl/well ELISA substrate (Sigma # T8665). The reaction was stopped after 8 minutes at 25° C. with 100 μl/well 1N HCl and the absorbance was read at 450 nm. Data were analyzed using Graphpad Prism software and EC50 values were reported.

[3] = target: T3, mouse DLL4-his (mouse, UniProt Q9JI71 27-532); assay: ELISA on DLL4-his
T3 construct: extracellular domain; not shown: his tag
T3 sequence (Q9JI71 27-532): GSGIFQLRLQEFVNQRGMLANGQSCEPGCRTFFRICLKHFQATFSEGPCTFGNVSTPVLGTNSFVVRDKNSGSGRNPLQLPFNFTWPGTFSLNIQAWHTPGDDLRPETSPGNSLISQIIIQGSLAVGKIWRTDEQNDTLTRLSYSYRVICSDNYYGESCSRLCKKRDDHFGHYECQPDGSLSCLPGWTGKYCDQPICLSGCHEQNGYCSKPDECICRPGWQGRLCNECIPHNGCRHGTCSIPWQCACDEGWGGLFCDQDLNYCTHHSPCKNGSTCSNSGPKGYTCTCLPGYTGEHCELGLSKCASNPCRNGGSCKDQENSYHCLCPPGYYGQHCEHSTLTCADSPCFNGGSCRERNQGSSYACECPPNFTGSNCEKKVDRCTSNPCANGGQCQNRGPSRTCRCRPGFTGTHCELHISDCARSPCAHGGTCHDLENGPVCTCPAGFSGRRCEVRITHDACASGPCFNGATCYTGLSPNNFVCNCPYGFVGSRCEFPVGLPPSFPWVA

[4] = target: T4, human DLL4 on the cell surface (human, UniProt Q9NR61 27-685); assay: FACS on DLL4 cells
T4 construct: whole, on cells; also called HEK293-hDLL4; hDLL4-293G
Method: (§1) Stable cell lines overexpressing cell-surface DLL4 were harvested from tissue culture flasks, washed four times and resuspended in phosphate buffered saline (PBS) containing 1% bovine serum albumin and 1 mM CaCl₂ (FACS buffer), 1.5×10³ cells were incubated with antibodies at various concentrations in FACS buffer for 60 minutes on ice. Cells were washed twice and 50 μL of R-phycoerythrin-conjugated anti-rat IgG. […] Following an incubation on ice (4° C., 60 minutes), cells were washed three times and resuspended in FACS buffer. Fluorescence was measured using a Becton Dickinson FACSCalibur-HTS (Becton Dickinson, San Jose. Calif., US). Data were analyzed using Graphpad Prism software and EC₅₀ values were reported as the concentration of antibody to achieve 50% of maximal DLL4 antibodies binding to DLL4 expressing cells.

[5] = target: T5, mouse DLL4 on the cell surface (mouse, UniProt Q9JI71 27-686); assay: FACS on DLL4 cells
T5 construct: whole, on cells; also called HEK293-mDLL4; mDLL4-293G
T5 sequence (Q9JI71 27-686): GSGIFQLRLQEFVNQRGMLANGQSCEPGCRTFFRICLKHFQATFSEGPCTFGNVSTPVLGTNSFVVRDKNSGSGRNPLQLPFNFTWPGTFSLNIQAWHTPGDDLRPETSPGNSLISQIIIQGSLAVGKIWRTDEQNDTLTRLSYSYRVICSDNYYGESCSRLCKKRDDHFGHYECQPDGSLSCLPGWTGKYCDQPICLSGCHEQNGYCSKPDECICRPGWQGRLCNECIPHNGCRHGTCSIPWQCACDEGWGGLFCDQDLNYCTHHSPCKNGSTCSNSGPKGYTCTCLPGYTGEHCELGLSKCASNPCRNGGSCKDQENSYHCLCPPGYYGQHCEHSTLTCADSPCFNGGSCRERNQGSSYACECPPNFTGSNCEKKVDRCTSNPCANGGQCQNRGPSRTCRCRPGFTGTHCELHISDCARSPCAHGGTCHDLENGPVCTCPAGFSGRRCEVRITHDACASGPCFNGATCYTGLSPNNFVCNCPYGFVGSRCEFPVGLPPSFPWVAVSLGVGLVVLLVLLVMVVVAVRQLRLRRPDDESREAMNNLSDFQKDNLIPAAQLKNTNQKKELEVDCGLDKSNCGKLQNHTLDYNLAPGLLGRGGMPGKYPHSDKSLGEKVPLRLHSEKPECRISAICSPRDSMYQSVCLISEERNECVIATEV
Method: as §1

[6] = target: T4, human DLL4 on the cell surface; assay: competition FACS, competitor huNotch-1
Method: (§2) Notch blocking assay: Briefly, stable cell lines overexpressing cell-surface DLL4 were harvested from tissue culture flasks and re-suspended in phosphate buffered saline (PBS) containing 1% bovine serum albumin and 1 mM CaCl₂ (FACS buffer). HEK293-hDLL4 or HEK293-mDLL4 cells were dispensed into 96-well plate (v-bottom) at 1.5×10⁵ cells/well in FACS buffer. […] After washing the cells two times with FACS buffer, 50 μL of R-phycoerythrin-conjugated streptavidin (1:150 dilution in FACS buffer) (Jackson ImmunoResearch, West Grove, Pa., US, catalog no. 016-110-084) were added. Following an incubation on ice (4° C., 60 minutes), cells were washed three times and resuspended in FACS buffer. Fluorescence was measured using a Becton Dickinson FACSCalibur-HTS (Becton Dickinson, San Jose. Calif.).

[7] = target: T5, mouse DLL4 on the cell surface; assay: competition FACS, competitor huNotch-1
Method: as §2

[8] = target: T6, human DLL4 extracellular domain (human, UniProt Q9NR61 27-529); assay: competition ELISA, competitor huNotch-1
T6 construct: extracellular domain; coated on plates in the sVEGFR1 assay; also called huDLL4 ECD; Human DLL4 ECD
Method: (§3) Plates were then washed 3 times with wash buffer (PBS, 0.05% Tween-20) and blocked with 200 μl/well blocking buffer (D-PBS, 1% BSA, 1 mM CaCl₂, 0.05% Tween-20) for 1 hour at 25° C. […] Assay plates were washed after blocking, and incubated with DLL4/antibody mixtures (100 μl/well, 1 hour at 25° C. with shaking). […] After a final wash, plates were developed using 100 μl/well substrate (TMB Sigma # T8665), and the reaction was stopped after an 8-minute incubation at 25° C. (for muDLL4 ELISA) and after 20 minute incubation at 25° C. (for huDLL4 ELISA) using 100 μl/well 1N HCl, and the absorbance was read at 450 nm.

[9] = target: T1, mouse DLL4 extracellular domain; assay: competition ELISA, competitor huNotch-1
Method: as §3

[10] = target: T6, human DLL4 extracellular domain; assay: Biacore SPR (*historic data); historic data, not from the same run as the other cells

T1 sequence (Q9JI71 27-532): as the sequence (Q9JI71 27-532) above

- Kd [1]: 12.8 nM
- EC50 [2]: 0.16 nM
- EC50 [3]: 0.19 nM
- Kd [4]: 3.45 nM
- Kd [5]: 1.34 nM
- IC50 [6]: 8.51 nM
- IC50 [7]: 1.71 nM
- IC50 [8]: 2.7 nM
- IC50 [9]: 2.9 nM
- Kd [10]: 15.2 nM
B1: E9-SE1 (antibody, V domains shown)
VH: EVQLVESGGGLVQPGGSLRLSCAVSGGSISSSSYYWGWIRQAPGKGLEWIGDIYYTGSTYYNPSLKSRVTISVDTSKNSFYLQMNSLRAEDTAVYYCAREDVILRGGSDYWGQGTLVTVSS
VL: LYVLTQPPSVSVSPGQTASITCSGQRLGDKYASWYQQKPGQSPVLVIYEDSKRPSGIPERFSGSNSGDTATLTISGTQTMDEADYLCQAWDRDTGVFGGGTKVTVLG
notes: full-length human IgG1
